In patent publication US20250296912A1, “AFFINITY ILLUDOFULVENE CONJUGATES” (Illudent, Inc., published 2025):
The star is where a group is joined. 3‑aminopropyl acylfulvene = analog 211, C-terminal Leu bound as amide to it; Mu = 4-morpholine-carbonyl, O=C(N1CCOCC1)*

Biological target: prostate specific antigen (Homo sapiens)
Assay: cell-based or functional assay

Mu-HSSKLQL-{3‑aminopropyl acylfulvene} [Analog 221 (Mu-His-Ser-Ser-Lys-Leu-Gln coupled to analog 207, 211-leucine)]
IC50 (48 hour exposure), Prostate DuPro (trace PSA): 13 µM | IC50 (48 hour exposure), Prostate LnCAP (positive PSA): 0.8 µM
